Measurements as given in article PMC11565934 (bioRxiv, 2024).

Biological target: myristylated PKA-Cα K7C (mouse, UniProt P05132 1-351, K7C, N-terminal myristylation)
Experiment: SPR

B1: phosphorylated SMO IFR→AAA (I573A, F577A, R580A; FLAG-tagged mouse SMO 64-674) in nanodiscs (receptor)
chain: LLSHCGRAAHCEPLRYNVCLGSALPYGATTTLLAGDSDSQEEAHGKLVLWSGLRNAPRCWAVIQPLLCAVYMPKCENDRVELPSRTLCQATRGPCAIVERERGWPDFLRCTPDHFPEGCPNEVQNIKFNSSGQCEAPLVRTDNPKSWYEDVEGCGIQCQNPLFTEAEHQDMHSYIAAFGAVTGLCTLFTLATFVADWRNSNRYPAVILFYVNACFFVGSIGWLAQFMDGARREIVCRADGTMRFGEPTSSETLSCVIIFVIVYYALMAGVVWFVVLTYAWHTSFKALGTTYQPLSGKTSYFHLLTWSLPFVLTVAILAVAQVDGDSVSGICFVGYKNYRYRAGFVLAPIGLVLIVGGYFLIRGVMTLFSIKSNHPGLLSEKAASKINETMLRLGIFGFLAFGFVLITFSCHFYDFFNQAEWERSFRDYVLCQANVTIGLPTKKPIPDCEIKNRPSLLVEKINLFAMFGTGIAMSTWVWTKATLLIWRRTWCRLTGHSDDEPKRIKKSKMAAKAASKARELLQNPGQELSFSMHTVSHDGPVAGLAFDLNEPSADVSSAWAQHVTKMVARRGAILPQDVSVTPVATPVPPEEQANMWLVEAEISPELEKRLG
modifications: GRK2/3-phosphorylated; mapped sites pS560, pS594, pT597, pS599, pS615, pS642, pT644, pT648
**Q.** With B1 as the binder, how does the Kd read?
**A.** 222 nM
